Consider 1 substance from article PMC6926487.

In the experiment the target is GST-Rac1A, active (GTPγs-bound) (Dictyostelium) (UniProt P34144). As to the kind of experiment: pull-down; GST-Rac on glutathione magnetic agarose beads, loaded with GTPγs; Dictyostelium lysate (50 mM Tris HCl pH 8, 100 mM NaCl, 30 mM MgCl2, 0.1% Triton X-100, 1 mM DTT) added for 1 hour at 4°C; immunoblot anti-GFP. On the technique in general: Immunoblotting shows a protein as a band on a membrane.

Substance “GFP-WASP (Dictyostelium Wiskott-Aldrich syndrome protein, wild type) (natural protein)” returned an immunoblot quantification of binding to active Rac1 (%) of 1.9%.
